Key:
TRP1 = assay: Northern blotting of TRP1 RNA in melan-a cells; format: cell-based, murine; conditions: for RNA level of TRP1: 10 nM, 5 days
Protocol: These techniques were performed as described previously (Aroca et al., 1993). Briefly, 2.0 μg of mRNA, isolated using a total RNA isolation kit and mRNA purification kit (Promega, Madison, Wis.), were electrophoresed and then blotted to Sure-Blot nylon membranes (Oncor, Gaithersburg, Md.), hybridized with ^32P-labeled probes, dehybridized and rehybridized with other probes again as necessary. TYRS-J, the probe specific for tyrosinase, was kindly provided by Drs. H. Yamamoto and T. Takeuchi, Sendai, Japan and is described in Yamamoto et al Japan J. Genetics Vol 62:271-274, 1987. pMT4, specific for TRP1, was provided by Dr. S. Shibahara, Sendai, Japan and is described in Shibahara, S. et al Nucleic Acid Res. Vol 14:2413-2427, 1986. TRP2a, specific for TRP2 was provided by Dr. I. Jackson, Edinburgh, Scotland and is described in Jackson, I et al. EMBO Vol 11:527-535, 1992. gp100, specific for silver, was provided by Dr. Y. Kawakami, Bethesda, Md. and is described in Kawakami et al PNAS, Vol. 91, 6458-6462, 1994.
Recombinant agouti protein was purified from baculovirus system by Dr. Michael Ollmann in Dr. Gregory Barsh's laboratory by methods known in the art. 2×10^6 cells were seeded per 15 cm diameter dish. The medium was changed everyday, and fresh agouti protein and/or αMSH added everyday usually at 10 nM. To examine transcriptional regulation, total RNA was isolated and Northern blotting performed by methods described in Example 1. The A26 probe to the MSH-R was provided by Dr. R. Cone and is described in Mountjoy et al. Science 257:1248-1251, 1992. At the translational level, metabolic labeling was used in conjunction with immunoprecipitation as described in Example 1. Western blotting and enzyme assay was used to examine function.
The effects of agouti protein on expression of TRP1, TRP2, and the MSH receptor were examined.
Total RNA was extracted from cells using an RNeasy total RNA isolation kit (QIAGEN, Catsworth, Calif.), following the manufacturer's instructions. […]

TRP2 = assay: DOPAchrome tautomerase enzyme assay on extracts of treated melan-a cells; format: cell-based, murine; conditions: extracts of melan-a cells cultured 5 days; 10 nM
Protocol: Assays for melanogenic catalytic activities as described below were carried out at pH 6.8, 37° C. for 60 minutes. (1) Tyrosine hydroxylase activity was measured using the [^3H]tyrosine assay (Hearing and Ekel, 1976; Hearing, 1987). This method specifically measures the tritiated water produced during the hydroxylation of tyrosine to DOPA. (2) DOPA oxidase activity was measured using incorporation of [3-^14C]DOPA into acid-insoluble melanin as detailed previously (Aroca et al., 1993). (3) DOPAchrome tautomerase activity was measured by HPLC as the disappearance of DOPAchrome substrate and the production of DHICA rather than DHI; data are converted to pmol products by comparison with known standards. The HPLC assay was detailed previously (Palumbo et al., 1987; Tsukamoto et al., 1992). (4) DHI oxidase and DHICA oxidase activities were measured by HPLC as the disappearance of these substrates from reaction mixtures compared to controls for spontaneous auto-oxidation; data are converted to pmol by comparison with known standard (Aroca et al., 1993). (5) Melanin production was measured using incorporation of [^14C]tyrosine into acid-insoluble melanin, also as detailed previously (Hearing and Ekel, 1976; Hearing, 1987); pmol melanin produced are calculated from the radioactive product. […]

Molecule | RNA level of TRP1 (TRP1) | DOPA chome tautomerase (TRP2) | level of TRP1 RNA (TRP1; 24 hours, different concentrations)
α-melanocyte stimulating hormone [MSH, reference compound] | no significant increase | 555.0 pmol/μg protein/hr | 
agouti protein: Recombinant murine agouti signal protein purified from a baculovirus expression system (protein) MDVTRLLLATLVSFLCFFTVHSHLALEETLGDDRSLRSDSSMNSLDFSSVSIVALNKKSKKISRKEAEKRKRSSKKKASMKKVARPPPPSPCVATRDSCKPPAPACCDPCASCQCRFFGSACTCRVLNPNC | nearly a fivefold decrease | 0.0 pmol/μg protein/hr | reduced, but not to the same extent as tyrosinase RNA

— patent US6579848B1, “Depigmenting activity of agouti signal protein and peptides thereof” (The United States of America as represented by the …, priority 1995, dated 2003)
